± gives the uncertainty stated by the source.
B1: Mineralocorticoid receptor, residues 600 to 675; numbered along this chain, P08235 (parent)
chain: SKICLVCGDEASGCHYGVVTCGSCKVFFKRAVEGQHNYLCAGRNDCIIDKIRRKNCPACRLQKCLQAGMNLGARKS
B2: Ankyrin repeat and SAM domain-containing protein 6, residues 774 to 836; numbered along this chain, Q68DC2 (parent)
chain: DEDELTGILKKLSLEKYQPIFEEQEVDMEAFLTLTDGDLKELGIKTDGSRQQILAAISELNAG

Variants of: B1
Test: abundance fitness (aPCA) (normalised: wild type 0, dead -1); higher = more abundant; growth selection in yeast, the domain comes from the species named
Settings: Homo sapiens

Abundance fitness of substitutions, site by site:
S76: D -0.031 ± 0.12, C -0.128 ± 0.063, I -0.198 ± 0.13, L -0.012 ± 0.042, H -0.051 ± 0.1, F -0.119 ± 0.06, Q -0.096 ± 0.21, E -0.044 ± 0.095, G -0.076 ± 0.047, W 0.122 ± 0.098, N -0.071 ± 0.094, K -0.654 ± 0.5, P 0.007 ± 0.06, R -0.116 ± 0.057, Y -0.075 ± 0.079, V -0.173 ± 0.071, M -0.084 ± 0.1, T 0.01 ± 0.066
G72: T -0.115 ± 0.053, V 0.012 ± 0.036, F -0.134 ± 0.063, I -0.02 ± 0.081, W -0.124 ± 0.047, Q 0.053 ± 0.072, M -0.042 ± 0.052, S -0.009 ± 0.04, P 0.011 ± 0.06, E -0.036 ± 0.055, L -0.021 ± 0.037, K -0.048 ± 0.061, R -0.065 ± 0.035, H 0.032 ± 0.078, Y -0.074 ± 0.067
R74: M -0.015 ± 0.055, I -0.042 ± 0.063, Q -0.079 ± 0.057, G -0.022 ± 0.031, Y -0.031 ± 0.069, E 0.056 ± 0.05, V 0.026 ± 0.038, N -0.011 ± 0.065, F -0.088 ± 0.061, K 0.02 ± 0.061, D -0.003 ± 0.07, S -0.001 ± 0.04, T 0.138 ± 0.063, L -0.061 ± 0.044, W 0 ± 0.046, P -0.03 ± 0.055, C 0.005 ± 0.06, A 0.027 ± 0.046
K75: M -0.025 ± 0.064, N -0.092 ± 0.08, Y -0.051 ± 0.073, E 0.055 ± 0.049, A 0.059 ± 0.052, T 0.014 ± 0.07, D -0.057 ± 0.085, W -0.007 ± 0.058, P 0.011 ± 0.062, H 0.077 ± 0.093, S 0.065 ± 0.047, V 0.034 ± 0.049, C -0.038 ± 0.071, F -0.167 ± 0.16, I -0.213 ± 0.11, L -0.056 ± 0.05, G -0.024 ± 0.039, Q 0.05 ± 0.062

Variants of: B2
Test: as above
Settings: Homo sapiens

Abundance fitness, by site and new letter:
K10: I -0.815 ± 0.16, T -0.049 ± 0.11, V -0.595 ± 0.049, W -0.831 ± 0.066, H -0.406 ± 0.066, S -0.185 ± 0.073, D -0.663 ± 0.087, Q -0.233 ± 0.088, C -1.01 ± 0.095, E -0.084 ± 0.082, L -0.656 ± 0.059, G -0.56 ± 0.046, F -1.16 ± 0.15, A -0.069 ± 0.052, R -0.327 ± 0.052, N -0.481 ± 0.067, P -0.525 ± 0.089
Q18: C -0.146 ± 0.09, A 0.07 ± 0.054
D1: Y 0.031 ± 0.088, L 0.223 ± 0.12, T 0.007 ± 0.13, A -0.023 ± 0.076, M 0.351 ± 0.14, G -0.039 ± 0.078, N 0.113 ± 0.12, S 0.045 ± 0.17, E -0.103 ± 0.14, I 0.158 ± 0.19, W -0.363 ± 0.31, F -0.312 ± 0.3, Q 0.002 ± 0.14
E15: V -0.36 ± 0.06, N -0.492 ± 0.36, S -0.143 ± 0.052, P -0.687 ± 0.068, Q -0.037 ± 0.065, T -0.21 ± 0.11, W -0.657 ± 0.079, L -0.185 ± 0.065, I -0.323 ± 0.084, F -0.505 ± 0.12, C -0.343 ± 0.057, R -0.53 ± 0.043, A -0.271 ± 0.062, K -0.869 ± 0.35, G -0.433 ± 0.05, M -0.123 ± 0.085, D -0.158 ± 0.076
K11: P -0.689 ± 0.061, S -0.305 ± 0.058, Y -0.553 ± 0.087, M -0.195 ± 0.11, L -0.363 ± 0.044, A -0.15 ± 0.06, N -0.254 ± 0.1, H -0.621 ± 0.2, G -0.224 ± 0.064, D -0.166 ± 0.079, R -0.071 ± 0.053, E -0.391 ± 0.12, Q -0.099 ± 0.13, T -0.428 ± 0.078
K16: C -0.083 ± 0.073, A 0.074 ± 0.046, M -0.084 ± 0.086, S -0.103 ± 0.071, F -0.339 ± 0.14, E 0.175 ± 0.076, V -0.113 ± 0.063, H 0.011 ± 0.19, R -0.203 ± 0.054, G -0.135 ± 0.046, Y -0.251 ± 0.066, P 0.001 ± 0.066, Q -0.253 ± 0.13, I -0.408 ± 0.18
L12: A -0.439 ± 0.082, E -0.949 ± 0.18, T -0.35 ± 0.083, C -0.023 ± 0.077, D -1.08 ± 0.21, H 0.171 ± 0.09, S -0.531 ± 0.057, I 0.254 ± 0.29, Y 0.09 ± 0.45, G -0.927 ± 0.078, N -0.402 ± 0.29, K -0.256 ± 0.09, R -0.538 ± 0.043, F 0.005 ± 0.11, W -0.061 ± 0.054, Q -0.567 ± 0.095, M 0.038 ± 0.064, V -0.369 ± 0.054, P -1.16 ± 0.16
I8: P -1.03 ± 0.13, H -0.189 ± 0.072, N -0.192 ± 0.1, T -0.058 ± 0.065, Y -0.186 ± 0.078, F -0.131 ± 0.16, A 0.158 ± 0.075, Q 0.105 ± 0.089, R -0.238 ± 0.038, D -0.51 ± 0.1, M 0.145 ± 0.078, S -0.265 ± 0.066, W -0.163 ± 0.058, C -0.029 ± 0.088, V -0.072 ± 0.1, L 0.149 ± 0.061, E -0.206 ± 0.079, K -0.162 ± 0.044
D3: K 0.162 ± 0.067, G -0.472 ± 0.098, L 0.133 ± 0.052, N -0.074 ± 0.064, V -0.267 ± 0.078, P -0.177 ± 0.067, A -0.157 ± 0.054, R -0.064 ± 0.046, I -0.082 ± 0.1, Q 0.08 ± 0.056, T -0.118 ± 0.091, Y 0.116 ± 0.086, M 0.209 ± 0.08, S 0.054 ± 0.05, C 0.057 ± 0.078, F 0.084 ± 0.12, E -0.078 ± 0.082, H 0.2 ± 0.063
T6: V -0.353 ± 0.22, I -0.436 ± 0.29, A 0.146 ± 0.11
L9: F -0.077 ± 0.13, G -0.917 ± 0.081, H -1.07 ± 0.18, C -0.801 ± 0.064, Y -0.935 ± 0.15, M -0.193 ± 0.058, Q -0.876 ± 0.16, S -0.729 ± 0.081, T -1.29 ± 0.19, V -0.712 ± 0.072, A -0.913 ± 0.091, K -1.06 ± 0.15, I -0.741 ± 0.15, E -1.02 ± 0.097, W -0.963 ± 0.11, R -0.999 ± 0.068
E4: H -0.31 ± 0.16, Q -0.619 ± 0.14, T -0.201 ± 0.066, R -0.602 ± 0.062, F -0.05 ± 0.16, V -0.215 ± 0.062, L -0.326 ± 0.053, N -0.838 ± 0.17, G -0.254 ± 0.054, M -0.27 ± 0.19, A -0.527 ± 0.078, I 0.179 ± 0.15, W -0.582 ± 0.087, P -0.619 ± 0.093, Y -0.511 ± 0.16, K -0.452 ± 0.081, C -0.016 ± 0.065, D -0.334 ± 0.079, S -0.148 ± 0.054
E2: A -0.029 ± 0.055, L 0.288 ± 0.08, M 0.565 ± 0.19, F 0.287 ± 0.079, H 0.248 ± 0.32, C 0.142 ± 0.084, P 0.112 ± 0.16, V -0.234 ± 0.065, Q 0.11 ± 0.19, N 0.047 ± 0.084, W 0.143 ± 0.069, G -0.158 ± 0.059, Y 0.063 ± 0.078, T 0.361 ± 0.23, R 0.081 ± 0.072
Y17: E -0.026 ± 0.068, K -0.426 ± 0.072, S -0.49 ± 0.059, T -0.509 ± 0.081, M 0.031 ± 0.06, F -0.045 ± 0.039, C -0.255 ± 0.096, L -0.127 ± 0.05, D -0.322 ± 0.091, V -0.355 ± 0.063, W -0.043 ± 0.062, P -0.756 ± 0.045, Q -0.339 ± 0.088, G -0.399 ± 0.054, N -0.344 ± 0.14, H -0.505 ± 0.14, A -0.561 ± 0.064
L5: G -0.969 ± 0.12, E -1.07 ± 0.15, S -0.84 ± 0.1, D -1.01 ± 0.11, I -0.05 ± 0.16, A -0.864 ± 0.068, M -0.116 ± 0.15, V -0.18 ± 0.056, Y -0.504 ± 0.12, Q -0.639 ± 0.13, K -0.895 ± 0.15, R -0.71 ± 0.087, P -0.559 ± 0.092, H -0.839 ± 0.13
L14: A -0.94 ± 0.084, G -1.05 ± 0.083, F -0.583 ± 0.12, C -0.64 ± 0.078, Y -0.97 ± 0.12, W -0.946 ± 0.088, I -0.332 ± 0.095, M -0.303 ± 0.058, E -0.777 ± 0.1, Q -1.17 ± 0.21, K -0.918 ± 0.12, V -0.655 ± 0.069, P -0.845 ± 0.1, T -1.37 ± 0.16, N -1.42 ± 0.41, H -1.01 ± 0.34
S13: R -0.04 ± 0.048, Y -0.623 ± 0.12, D 0.131 ± 0.073, E -0.002 ± 0.049, W -0.472 ± 0.072, I -0.202 ± 0.21, T -0.127 ± 0.051, V -0.567 ± 0.094, H 0.075 ± 0.08, N 0.039 ± 0.1, L -0.497 ± 0.056, Q 0.042 ± 0.053, F -0.62 ± 0.14, P -0.736 ± 0.078, A -0.067 ± 0.058
G7: C -0.072 ± 0.089, N -0.092 ± 0.13, P -0.111 ± 0.068, A 0.042 ± 0.05, L 0.102 ± 0.11, M 0.199 ± 0.073, H 0.185 ± 0.1, V -0.191 ± 0.057, W -0.005 ± 0.063, T 0.111 ± 0.067, Y -0.044 ± 0.11, D 0.039 ± 0.092, E -0.016 ± 0.095, F -0.027 ± 0.12, Q 0.177 ± 0.099, K 0.048 ± 0.081, R 0.108 ± 0.045, I 0.129 ± 0.11
